Data reported in patent US20190000964A1.

Tests used:
[1] = molecular target: human CCR5 receptor (hCCR5) (human) (UniProt P51681); test: inhibition of gp120/sCD4 complex binding to CCR5-expressing Cf2Th cells by competing peptide
[2] = molecular target: human CCR5 receptor (hCCR5) (human) (UniProt P51681)
[3] = molecular target: human CCR5 receptor (hCCR5) (human) (UniProt P51681); test: 0.5 nM non-labeled gp120 Bal against 0.5 nM FITC-gp120Bal on Cf2Th/synCCR5 cells with sCD4

Chain of human CCR5 receptor (hCCR5) (human) (P51681 whole entry): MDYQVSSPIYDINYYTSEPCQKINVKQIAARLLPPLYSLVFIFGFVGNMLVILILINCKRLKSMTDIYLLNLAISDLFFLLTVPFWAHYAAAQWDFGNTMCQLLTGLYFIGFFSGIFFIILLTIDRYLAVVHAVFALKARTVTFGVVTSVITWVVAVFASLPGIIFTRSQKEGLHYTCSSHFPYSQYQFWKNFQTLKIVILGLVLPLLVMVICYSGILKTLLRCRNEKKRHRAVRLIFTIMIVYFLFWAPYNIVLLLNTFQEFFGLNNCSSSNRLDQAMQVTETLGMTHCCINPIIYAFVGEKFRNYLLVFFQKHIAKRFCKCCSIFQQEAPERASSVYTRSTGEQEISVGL

Substance | EC50 [1] [nM] | Kd [2] [nM] | percent inhibition of FITC-gp120Bal binding [3] [%]
All D, ttnyt (peptide) | 2 | – | –
gp120 Bal-sCD4 complex (from UniProt P01730 26-396) | – | 0.46 | > 80
gp120 CM235-sCD4 complex (from UniProt P01730 26-396) | – | 0.77 | –
